Laboratory results taken from patent publication US11965030 (Sanofi, dated 2024).

Legend:
CD40 [1] = biological target: T1, CD40 (UniProt P25942 21-193, limits assumed); assay: SPR (Biacore 3000), column 'Affinity'
T1 construct: construct not described

CD40 [2] = biological target: T1, CD40; assay: SPR
PD-L1 = biological target: T2, PD-L1 (UniProt Q9NZQ7 19-239, limits assumed); assay: SPR (Biacore 3000), column 'Affinity'
T2 construct: construct not described; also called Programmed Cell Death Ligand 1 (PD-L1)
T2 sequence (Q9NZQ7 19-239 limits assumed): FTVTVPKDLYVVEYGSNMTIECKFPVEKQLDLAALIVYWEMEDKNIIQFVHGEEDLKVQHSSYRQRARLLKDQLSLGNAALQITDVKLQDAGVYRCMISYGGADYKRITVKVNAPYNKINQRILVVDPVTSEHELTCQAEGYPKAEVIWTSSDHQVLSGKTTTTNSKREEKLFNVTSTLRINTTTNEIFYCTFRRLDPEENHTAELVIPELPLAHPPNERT

GITR = biological target: T3, GITR (UniProt Q9Y5U5 26-161, limits assumed); assay: SPR (Biacore 3000), column 'Affinity'
T3 construct: construct not described; also called Glucocorticoid-Induce TNFR-Related Protein (GITR)
T3 sequence (looked up): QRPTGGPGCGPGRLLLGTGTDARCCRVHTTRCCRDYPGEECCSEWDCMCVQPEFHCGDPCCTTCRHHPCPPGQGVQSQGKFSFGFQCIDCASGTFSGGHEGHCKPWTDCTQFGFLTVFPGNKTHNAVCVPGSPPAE

OX40 = biological target: T4, OX40 (UniProt P43489 29-216); assay: SPR (Biacore 3000), column 'Affinity'
T4 construct: construct not described
T4 sequence (looked up): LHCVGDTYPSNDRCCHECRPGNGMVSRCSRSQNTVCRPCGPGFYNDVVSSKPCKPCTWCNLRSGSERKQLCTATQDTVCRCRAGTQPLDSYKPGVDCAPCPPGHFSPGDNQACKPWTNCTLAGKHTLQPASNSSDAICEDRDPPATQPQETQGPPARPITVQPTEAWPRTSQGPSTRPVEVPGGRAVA

T1 sequence (P25942 21-193 limits assumed): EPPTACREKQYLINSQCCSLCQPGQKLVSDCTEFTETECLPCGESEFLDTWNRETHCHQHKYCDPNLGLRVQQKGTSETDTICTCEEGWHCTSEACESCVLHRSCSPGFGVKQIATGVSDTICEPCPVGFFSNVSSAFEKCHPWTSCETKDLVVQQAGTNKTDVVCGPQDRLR

B1: CD40 (CH1: L143Q, S188V; CK: V133T, S176V) × PD-L1 (CH1: T192E; CK: N137K, S114A) (closed) (bispecific antibody)
light 1: DIQMTQSPSSVSASVGDRVTITCRASQGIYSWLAWYQQKPGKAPNLLIYTASTLQSGVPSRFSGSGSGTDFTLTISSLQPEDFATYYCQQANIFPLTFGGGTKVEIKRTVAAPAVFIFPPSDEQLKSGTASVVCLLKNFYPREAKVQWKVDNALQSGNSQESVTEQDSKDSTYSLSSTLTLSKADYEKHKVYACEVTHQGLSSPVTKSFNRGEC
heavy: not shown
light 2: not shown
notes: Tandem Fab; also called T13
Kd (CD40 [1]): 2400 pM

B2: anti-CD40 × anti-PD-L1 Y-shaped antibody Y30 (bispecific antibody)
light 1: DIQMTQSPSSVSASVGDRVTITCRASQGIYSWLAWYQQKPGKAPNLLIYTASTLQSGVPSRFSGSGSGTDFTLTISSLQPEDFATYYCQQANIFPLTFGGGTKVEIKRTVAAPSVFIFPPSDEQLKSGTASVVCLLNNFYPREAKVQWKVDNALQSGNSQESVTEQDSKDSTYSLSSTLTLSKADYEKHKVYACEVTHQGLSSPVTKSFNRGEC
heavy 1: not shown
heavy 2: not shown
light 2: not shown
notes: CD40 arm wild type (knob); PD-L1 arm S114A,E123K,N137K / T192E,K221E (hole)
binding result (CD40 [2]): binds

B3: PD-L1 (Q38E-Q39K)-(CH1: L143Q, S188V; CK: V133T, S176V) × OX40 (Q38K-Q39E)-(CH1: T192E; CK: N137K, S114A) (open) (bispecific antibody)
light 1: not shown
heavy: not shown
light 2: DIQMTQSPSSVSASVGDRVTITCRASQGIYSWLAWYQKKPGKAPNLLIYTASTLQSGVPSRFSGSGSGTDFTLTISSLQPEDFATYYCQQANIFPLTFGGGTKVEIKRTVAAPAVFIFPPSDEQLKSGTASVVCLLKNFYPREAKVQWKVDNALQSGNSQESVTEQDSKDSTYSLSSTLTLSKADYEKHKVYACEVTHQGLSSPVTKSFNRGEC
notes: Tandem Fab; also called T18
Kd (PD-L1): 23 pM | Kd (CD40 [1]): 2100 pM

B4: CD40 (Q38E-Q39K)-(CH1: L143Q, S188V; CK: V133T, S176V) × PD-L1 (Q38K-Q39E)-(CH1: T192E; CK: N137K, S114A) (closed) (bispecific antibody)
light 1: DIQMTQSPSSVSASVGDRVTITCRASQGIYSWLAWYQKKPGKAPNLLIYTASTLQSGVPSRFSGSGSGTDFTLTISSLQPEDFATYYCQQANIFPLTFGGGTKVEIKRTVAAPAVFIFPPSDEQLKSGTASVVCLLKNFYPREAKVQWKVDNALQSGNSQESVTEQDSKDSTYSLSSTLTLSKADYEKHKVYACEVTHQGLSSPVTKSFNRGEC
heavy: not shown
light 2: not shown
notes: Tandem Fab; Same printed name as T14; also called T22
Kd (PD-L1): 58 pM | Kd (CD40 [1]): 1700 pM

B5: PD-L1 (Q38K-Q39E)-(CH1: T192E; CK: N137K, S114A) × CD40 (Q38E-Q39K)-(CH1: L143Q, S188V; CK: V133T, S176V) (open) (bispecific antibody)
light 1: not shown
heavy: not shown
light 2: DIQMTQSPSSVSASVGDRVTITCRASQGIYSWLAWYQQKPGKAPNLLIYTASTLQSGVPSRFSGSGSGTDFTLTISSLQPEDFATYYCQQANIFPLTFGGGTKVEIKRTVAAPAVFIFPPSDEQLKSGTASVVCLLKNFYPREAKVQWKVDNALQSGNSQESVTEQDSKDSTYSLSSTLTLSKADYEKHKVYACEVTHQGLSSPVTKSFNRGEC
notes: Tandem Fab; also called T16
Kd (CD40 [1]): 4000 pM

B6: CD40 (Q38E-Q39K)-(CH1: L143Q, S188V; CK: V133T, S176V) × PD-L1 (Q38K-Q39E)-(CH1: T192E; CK: N137K, S114A) (open) (bispecific antibody)
light 1: DIQMTQSPSSVSASVGDRVTITCRASQGIYSWLAWYQKKPGKAPNLLIYTASTLQSGVPSRFSGSGSGTDFTLTISSLQPEDFATYYCQQANIFPLTFGGGTKVEIKRTVAAPAVFIFPPSDEQLKSGTASVVCLLKNFYPREAKVQWKVDNALQSGNSQESVTEQDSKDSTYSLSSTLTLSKADYEKHKVYACEVTHQGLSSPVTKSFNRGEC
heavy: not shown
light 2: not shown
notes: Tandem Fab; also called T26
Kd (PD-L1): 51 pM | Kd (CD40 [1]): 1600 pM

B7: CD40 (CH1: L143Q, S188V; CK: V133T, S176V) × PD-L1 (CH1: T192E; CK: N137K, S114A) (open) (bispecific antibody)
light 1: DIQMTQSPSSVSASVGDRVTITCRASQGIYSWLAWYQQKPGKAPNLLIYTASTLQSGVPSRFSGSGSGTDFTLTISSLQPEDFATYYCQQANIFPLTFGGGTKVEIKRTVAAPAVFIFPPSDEQLKSGTASVVCLLKNFYPREAKVQWKVDNALQSGNSQESVTEQDSKDSTYSLSSTLTLSKADYEKHKVYACEVTHQGLSSPVTKSFNRGEC
heavy: not shown
light 2: not shown
notes: Tandem Fab; also called T17
Kd (CD40 [1]): 3100 pM

B8: CD40 (Q38E-Q39K)-(CH1: L143Q, S188V; CK: V133T, S176V) × PD-L1 (Q38K-Q39E)-(CH1: T192E; CK: N137K, S114A) (closed) (bispecific antibody)
light 1: not shown
heavy: not shown
light 2: DIQMTQSPSSVSASVGDRVTITCRASQGIYSWLAWYQKKPGKAPNLLIYTASTLQSGVPSRFSGSGSGTDFTLTISSLQPEDFATYYCQQANIFPLTFGGGTKVEIKRTVAAPAVFIFPPSDEQLKSGTASVVCLLKNFYPREAKVQWKVDNALQSGNSQESVTEQDSKDSTYSLSSTLTLSKADYEKHKVYACEVTHQGLSSPVTKSFNRGEC
notes: Tandem Fab; also called T14
Kd (PD-L1): 19 pM | Kd (CD40 [1]): 2400 pM

B9: GITR (Q38K-Q39E)-(CH1: T192E; CK: N137K, S114A) × OX40 (Q38E-Q39K)-(CH1: L143Q, S188V; CK: V133T, S176V) (closed) (bispecific antibody)
light 1: EIVMTQSPATLSVSPGERATLSCKASQNVGTNVAWYQKKPGQAPRLLIYSASYRYSGIPARFSGSGSGTEFTLTISSLQSEDFAVYYCQQYNTDPLTFGGGTKVEIKRTVAAPAVFIFPPSDEQLKSGTASVVCLLKNFYPREAKVQWKVDNALQSGNSQESVTEQDSKDSTYSLSSTLTLSKADYEKHKVYACEVTHQGLSSPVTKSFNRGEC
heavy: not shown
light 2: not shown
notes: Tandem Fab; also called T3
Kd (GITR): 300 pM | Kd (OX40): 300 pM

B10: GITR (CH1: T192E; CK: N137K, S114A) × OX40 (CH1: L143Q, S188V; CK: V133T, S176V) (open) (bispecific antibody)
light 1: EIVMTQSPATLSVSPGERATLSCKASQNVGTNVAWYQQKPGQAPRLLIYSASYRYSGIPARFSGSGSGTEFTLTISSLQSEDFAVYYCQQYNTDPLTFGGGTKVEIKRTVAAPAVFIFPPSDEQLKSGTASVVCLLKNFYPREAKVQWKVDNALQSGNSQESVTEQDSKDSTYSLSSTLTLSKADYEKHKVYACEVTHQGLSSPVTKSFNRGEC
heavy: not shown
light 2: not shown
notes: Tandem Fab; LC-2 as printed is the light chain that elsewhere goes with PD1 (EIVLTQ...SSNWPRT), not the OX40 light chain; also called T6
Kd (GITR): 500 pM | binding result (OX40): no binding

B11: OX40 (CH1: L143Q, S188V; CK: V133T, S176V) × GITR (CH1: T192E; CK: N137K, S114A) (closed) (bispecific antibody)
light 1: not shown
heavy: not shown
light 2: EIVMTQSPATLSVSPGERATLSCKASQNVGTNVAWYQQKPGQAPRLLIYSASYRYSGIPARFSGSGSGTEFTLTISSLQSEDFAVYYCQQYNTDPLTFGGGTKVEIKRTVAAPAVFIFPPSDEQLKSGTASVVCLLKNFYPREAKVQWKVDNALQSGNSQESVTEQDSKDSTYSLSSTLTLSKADYEKHKVYACEVTHQGLSSPVTKSFNRGEC
notes: Tandem Fab; also called T4
Kd (GITR): 900 pM | Kd (OX40): 200 pM

B12: OX40 (Q38E-Q39K)-(CH1: L143Q, S188V; CK: V133T, S176V) × GITR (Q38K-Q39E)-CH1: T192E; CK: N137K, S114A) closed) (bispecific antibody)
light 1: not shown
heavy: not shown
light 2: EIVMTQSPATLSVSPGERATLSCKASQNVGTNVAWYQKKPGQAPRLLIYSASYRYSGIPARFSGSGSGTEFTLTISSLQSEDFAVYYCQQYNTDPLTFGGGTKVEIKRTVAAPAVFIFPPSDEQLKSGTASVVCLLKNFYPREAKVQWKVDNALQSGNSQESVTEQDSKDSTYSLSSTLTLSKADYEKHKVYACEVTHQGLSSPVTKSFNRGEC
notes: Tandem Fab; also called T5
Kd (GITR): 700 pM | Kd (OX40): 200 pM

B13: GITR (Q38K-Q39E)-(CH1: T192E; CK: N137K, S114A) × OX40 (Q38E-Q39K)-(CH1: L143Q, S188V; CK: V133T, S176V) (open) (bispecific antibody)
light 1: EIVMTQSPATLSVSPGERATLSCKASQNVGTNVAWYQKKPGQAPRLLIYSASYRYSGIPARFSGSGSGTEFTLTISSLQSEDFAVYYCQQYNTDPLTFGGGTKVEIKRTVAAPAVFIFPPSDEQLKSGTASVVCLLKNFYPREAKVQWKVDNALQSGNSQESVTEQDSKDSTYSLSSTLTLSKADYEKHKVYACEVTHQGLSSPVTKSFNRGEC
heavy: not shown
light 2: not shown
notes: Tandem Fab; also called T7
Kd (GITR): 700 pM | Kd (OX40): 1000 pM

B14: OX40 (CH1: L143Q, S188V; CK: V133T, S176V) × GITR (CH1: T192E; CK: N137K, S114A) (open) (bispecific antibody)
light 1: not shown
heavy: not shown
light 2: EIVMTQSPATLSVSPGERATLSCKASQNVGTNVAWYQQKPGQAPRLLIYSASYRYSGIPARFSGSGSGTEFTLTISSLQSEDFAVYYCQQYNTDPLTFGGGTKVEIKRTVAAPAVFIFPPSDEQLKSGTASVVCLLKNFYPREAKVQWKVDNALQSGNSQESVTEQDSKDSTYSLSSTLTLSKADYEKHKVYACEVTHQGLSSPVTKSFNRGEC
notes: Tandem Fab; also called T8
Kd (GITR): 600 pM | Kd (OX40): 300 pM

B15: OX40 (Q38E-Q39K)-(CH1: L143Q, S188V; CK: V133T, S176V) × GITR (Q38K-Q39E)-(CH1: T192E; CK: N137K, S114A) (open) (bispecific antibody)
light 1: not shown
heavy: not shown
light 2: EIVMTQSPATLSVSPGERATLSCKASQNVGTNVAWYQKKPGQAPRLLIYSASYRYSGIPARFSGSGSGTEFTLTISSLQSEDFAVYYCQQYNTDPLTFGGGTKVEIKRTVAAPAVFIFPPSDEQLKSGTASVVCLLKNFYPREAKVQWKVDNALQSGNSQESVTEQDSKDSTYSLSSTLTLSKADYEKHKVYACEVTHQGLSSPVTKSFNRGEC
notes: Tandem Fab; also called T9
Kd (GITR): 600 pM | Kd (OX40): 200 pM
